Reference: PMC11955279, “The Molecular Mechanism of Interaction Between [sequence]3 and APETALA1 in Arabidopsis thaliana” (Plant Direct, 2025)

Target: the molecule itself
Test: native gel or EMSA; chemiluminescent EMSA; purified protein bound to the biotin-labelled AP1 probe (single CArG cassette) at room temperature; dimer band on the DNA probe

B1: AtSEP3, wild type, recombinant GST-tagged protein (natural protein, Arabidopsis thaliana, UniProt O22456 2-251, looked up)
chain: GRGRVELKRIENKINRQVTFAKRRNGLLKKAYELSVLCDAEVALIIFSNRGKLYEFCSSSSMLRTLERYQKCNYGAPEPNVPSREALAVELSSQQEYLKLKERYDALQRTQRNLLGEDLGPLSTKELESLERQLDSSLKQIRALRTQFMLDQLNDLQSKERMLTETNKTLRLRLADGYQMPLQLNPNQEEVDHYGRHHHQQQQHSQAFFQPLECEPILQIGYQGQQDGMGAGPSVNNYMLGWLPYDTNSI
notes: also called wild-type SEP3 protein; source: E. coli BL-21 (DE3), pGEX-4T-3, purified (GST-tagged protein purification kit)
- binding result: binds
